Results taken from the nanobody polyreactivity screen of Harvey et al. (2022).

assay: yeast display, Sf9 membrane polyspecificity reagent, FACS + sequencing; frameworks hold sequencing errors
Procedure, shortened: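 Galactose induction of a Saccharomyces cerevisiae BJ5465 synthetic nanobody display library ran 36–48 hours. The cells were then stained for 1 hour at 4 °C with 10% biotinylated, detergent-solubilized Sf9 membrane reagent, pulled down on streptavidin microbeads and FACS-sorted into low and high (top ~1%) gates on expression and reagent-binding fluorescence. Labels for polyreactivity follow the gate of origin.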

Sequence | polyreactivity (PSR sort gate)
QVQLVESGGGLVQAGGSLRLSCAASGFIFQRNAMGWYRQAPGKERELVAAIRSSGGTTYYADSVKGRFTISRDNAKNTVYLQMNSLKPEDTAVYYCAAVTTSKFNYWGQGSQVTVSS | low polyreactivity
QVQLVESGGGLVQAGGSLRLSCAASGFIFQVYAMGWYRQAPGKERELVAGISRTGGSTYYADSVKGRFTISRDNAKNTVYLQMNSLKPEDTAVYYCAKPYWGYYGYFTHNYWGQGTQVTVSS | high polyreactivity
QVQLVESGGGLVQAGGSLRLSCAASGFIFQYYAMGWYRQAPGKERELVAVIRSGGSTYYADSVKGRFTISRDNAKNTVYLQMNSLKPEDTAVYYCNARRTYLDRYNYWGQGTQVTVSS | high polyreactivity
QVQLVESGGGLVQAGGSLRLSCAASGFIFRAYAMGWYRQEPGKERELVAAISRGGGTYYADSVKGRFTISRDNAKNTVYLQMNSLKPEDTAVYYCAVDLLRRGFPTVVTTYDYWGQGTQVTVSS | high polyreactivity
QVQLVESGGGLVQAGGSLRLSCAASGFIFRDNAMGWYRQAPGKERELVAAISSRGGSTYYADSVKGRFTISRDNAKNTVYLQMNSLKPEDTAVYYCAKRPYKSRVQLDSWGQGTQVTVSS | high polyreactivity
QVQLVESGGGLVQAGGSLRLSCAASGFIFRDYAMGWYRQAPGKERELVATISSS | low polyreactivity
QVQLVESGGGLVQAGGSLRLSCAASGFIFRFNAMGWYRQAPGKERQLVAAISGSGGITYYADSVKGRFTISRDNAKNTVYLQMNSLKPEDTAVYYCAARPLFGWRGYNYWGQGTQVTVSS | high polyreactivity
QVQLVESGGGLVQAGGSLRLSCAASGFIFRFYAMGWYRQAPGKERELVATISKRGGTTYYADSVKGRFTISRDNAKYTVYLQMNSLKPEDTAVYFCAVRLYLEMDYWGQGTQVTVSS | high polyreactivity
QVQLVESGGGLVQAGGSLRLSCAASGFIFRGYAMGWYRQAPGKERELVAAISRSGGSTYYADSVKGRFTISRDNAKNTVYLQMNSLKPEDTAVYYCAARNSPGFPGDYWGQGTQVTVSS | high polyreactivity
QVQLVESGGGLVQAGGSLRLSCAASGFIFRKYAMGWYRQAPGKERELVAAITNGGSTYADSVKGRFTISRDNAKNTVYLQMNSLKPEDTAVYYCNARYRPRQRPEGGYWGQGTQVTVSS | high polyreactivity
QVQLVESGGGLVQAGGSLRLSCAASGFIFRNYVMGWYRQAPGKERELVAAINWSTGTTNYADSVKGGFTISRDNAKNTVYLQMNSLKPEDTAVYYCNARYRLRYIYSLRYDYWGQGTQVTVSS | high polyreactivity
QVQLVESGGGLVQAGGSLRLSCAASGFIFRPYAMGWYRQAPGKERELVAAITGGGSTYYADSVKGRFTISRDNAKNTVYLQMNSLKPEDTAVYYCAKDKGRAYFGPSPYDYWGQGTQVTVSS | low polyreactivity
QVQLVESGGGLVQAGGSLRLSCAASGFIFRPYAMGWYRQAPGKERELVAALTGGGSTYYADSVKGRFTISRDNAKNTVYLQMNSLKPEDTAVYYCNADRRRRSGGFAAWHFQRNDYWGQGTQVSVSS | low polyreactivity
QVQLVESGGGLVQAGGSLRLSCAASGFIFRRNAMGRYRQAPGKERELVAAITSRGGSTYYADSVKGRFTISRDNAKHTVYLQMNSLKPEDTAVYYCAAKFPSRFYSFVQYYYWGQVTQVTVSS | high polyreactivity
QVQLVESGGGLVQAGGSLRLSCAASGFIFRRNAMGWYRQAPGKERELVAAIRQRGDSTYYADSVKGRFTISRDNAKITVYLQMNSLKPEDTAVYYCNAVAKLYYWRYDYWGQGTQVTVSS | low polyreactivity
QVQLVESGGGLVQAGGSLRLSCAASGFIFRRYAMGWYRPAPGKEREFVAAISWSGATTYYADSVKGRFTISRDNAKITVYLQMNSLKPEDTAVYYCAKDVRRSPSTWDNYWGQGTQVTVSS | high polyreactivity
QVQLVESGGGLVQAGGSLRLSCAASGFIFRRYAMGWYRQAPGKERELVAAISRTGSTNYADSVKGRFTISRDNAKNTVYLKMNSLKPDDTAVYYCNARYITFNGYGYGYWGQGTQVTVSS | high polyreactivity
QVQLVESGGGLVQAGGSLRLSCAASGFIFRRYARGWYRQAPGKERELVASISWRGGSTYYADSVKGRFTISRDNAKNTVYLQMNSLKPEDTAVYYCAARIGATYWVDWTHRAYDYWGQGTQVTVSS | high polyreactivity
QVQLVESGGGLVQAGGSLRLSCAASGFIFRRYVMGWYRQAPGKERELVAAISYGGGSTYYADSVKGRFTISRDNAKITVYLQMNSLKPEDTAVYYCAKLYYRHLYEYDYWGQGTQVTVSS | high polyreactivity
QVQLVESGGGLVQAGGSLRLSCAASGFIFRSNAMGWYRQAPGKERELVAAITRGDSTNYADSVKGRFTITRDNAKNTDYLQKNSLKPEDTAVYYCAAGRSYHSGVHHYRKRNYWGQGTQVTVSS | high polyreactivity
QVQLVESGGGLVQAGGSLRLSCAASGFIFRSNTMGWYRQAPGKERELVAAITWSGGNTYYADSVKGRFTISRDNAKNTVYLQMNSLKPEDTAVYYCATVTRLYRHGYWGQGTQVTVSS | high polyreactivity
QVQLVESGGGLVQAGGSLRLSCAASGFIFRSYVMGWYRQAPGKEMEFVAVITSSGGRTYYADSVKGRFTISRDNAKNTVYLQMNSLKPEDTAVYYCAATRRYPPRRVWYDYWGQGTQVTVSS | high polyreactivity

Sequence | polyreactivity (PSR sort gate)
QVQLVESGGGLVQAGGSLRLSCAASGFIFRTYAMGWYRQAPGKERELVATITGDGSTNYADSVKGRFTISRDHAKNTVYLQMNSLKPEDTAVYYGSRDDRLAGDYWGQGSQVTVSS | low polyreactivity
QVQLVESGGGLVQAGGSLRLSCAASGFIFRVNAMGWYRQATGKERELVAAISASGGTTYYADSVKGRFTISRDIAKNTVYLQMNSLKPEDTAVYYCNAPSRTRYDYWGQGTQVTVSS | low polyreactivity
QVQLVESGGGLVQAGGSLRLSCAASGFIFRVYAMGWYRQAPGKERELVAAISSSGSSTFYADSVKGRFTISRDNAKNTVYLQMNSLKPEDTAVYYCNAYVRRIVRSYYWGQGTQVTVSS | high polyreactivity
QVQLVESGGGLVQAGGSLRLSCAASGFIFRWNTMGWYRQAPGKERELVAAISSRGGSTYYADSVKGRFKISRDNAKNTVYLQMNSLKPEDTAVYYCNAVRGDEYWGQGTQVTVSS | high polyreactivity
QVQLVESGGGLVQAGGSLRLSCAASGFIFRWYAMGWYRQAPGKERELVAAISSGATTNYADSVKGRFTISRDNAKNTVYLQMNSLKPEDTAVYYCAAAHSYYGHYYYWGQGTQVTVSS | high polyreactivity
QVQLVESGGGLVQAGGSLRLSCAASGFIFRWYAMGWYRQAPGKERELVATITRGGGSTYYADSVKGRFTISRDNAKNTVYLQMNSLKPEDTAVYYCAKSVTGWRGLWYTPRNYYWGQGTQVTVSS | high polyreactivity
QVQLVESGGGLVQAGGSLRLSCAASGFIFRYNAMGWYRQAPGKERELVARISSGGSTNYADSVKGRFTISRDNAKNTVYLQMNSLIPEDTAVYYCAVKQYWYIWSGYGYDYWGQGTQVTVSS | high polyreactivity
QVQLVESGGGLVQAGGSLRLSCAASGFIFRYYAMGWSRQAPGKERELGAAITISGGSTYYADSVKGRFTISRDNAKNTVKLQMNSLKPEDTAFYYCAADSKFWYLFHGKRYDYWGQGTQGTVSS | high polyreactivity
QVQLVESGGGLVQAGGSLRLSCAASGFIFRYYAMGWYRPAPGKERELVAAISGSGGSTYYADSVKGRFTISRDNAKNTVYLQMNSLKPEDTAVYYCNKVVLYGAHYYYWGQGTQVTVSS | high polyreactivity
QVQLVESGGGLVQAGGSLRLSCAASGFIFRYYAMGWYRQAPGKEREFVASINWNGGSTSYADSVKGRFTISRDNAKNTVYLQMNSLKPEDTAVSYCAADFQYAIHTDMDYWGHGTQVTVSS | high polyreactivity
QVQLVESGGGLVQAGGSLRLSCAASGFIFRYYAMGWYRQAPGKERELVAAISKRGGGTYYADSVKGRFTISRDYAKNTVFLQMNSLKPEDTAVYYCAAGPGRGRSTLGSYYWGQGTQVTVTS | high polyreactivity
QVQLVESGGGLVQAGGSLRLSCAASGFIFRYYAMGWYRQAPGKERELVAAISWRGGSTYYADSVKGRFTISRDNAKNTVYLQMNSLKPEDTAVYYCAAERYVDYGYWGQGTQVTVSS | high polyreactivity
QVQLVESGGGLVQAGGSLRLSCAASGFIFRYYAMGWYRQAPGKERELVAAITRSGDNTYYADSVKGRFTISRDNAKNTVYLQMNSLKPEDTAVYYCAARDVQYQQALGGDYWGQGTQVTVSS | low polyreactivity
QVQLVESGGGLVQAGGSLRLSCAASGFIFRYYAMGWYRQAPGKERELVAAITSRGSSTYYADSVKGRFTISRDNAKNTVYLQMNSLKPEDTAVYYCAARLRGDYVRYYYWGQGTQVTVSS | high polyreactivity
QVQLVESGGGLVQAGGSLRLSCAASGFIFRYYAMGWYRQAPGTERELVAAISQSGGSTDYADSVKGRFTISRDTAKNTVYLQMNSLKPVDTAVYYCATRTPYTKRDYWGQGTQVTVSS | high polyreactivity
QVQLVESGGGLVQAGGSLRLSCAASGFIFRYYAMGWYRQATGKEREFVAVISSTTGSTYYADSVKGRFTISRDNAKNTVYLQMNSLKPEDTAVYYCAAASRRRRPLKRMDYWGQGTQVTVSS | low polyreactivity
QVQLVESGGGLVQAGGSLRLSCAASGFIFRYYAMGWYRQEPGKERELFAAISSTGGSTSYADSVKGRFTISRDNAKNTVYLQMNSLKPEDTAVYYCAADYWIRRRTYGQLYRPYYYWGQGTQVTVSS | high polyreactivity
QVQLVESGGGLVQAGGSLRLSCAASGFIFRYYAMRWYRQAPGKERELVATITYGGTSTSYADSVKGRFTISRDNAKNTVYLQMNSLKPEDSAVYYCATDRVSRVRPFWNVWRSNYWGQGTQVTVSS | high polyreactivity
QVQLVESGGGLVQAGGSLRLSCAASGFIFSENAMGLYRPAPGKERELVAAISDAGGSTYYADSVKGRFTISRDNAKNTVYLQMNSLKPEDTAVYYCNAVYHPKGPSGYGYWGQGTQVTVSS | low polyreactivity
QVQLVESGGGLVQAGGSLRLSCAASGFIFSFYVMGWYRQAPGKERELVAAISTSGASTYYADSVKGRFTISRDNAKNTVYLQMTSLKPEDTAVYYCNVVYRYGGYNYWGQGTQVTVSS | high polyreactivity
QVQLVESGGGLVQAGGSLRLSCAASGFIFSIYAMGWYRQAPGKERELVAAISKSGGRTYYADSVKGRFTISRDNAKNTVYLQMNSLKPEDTAVYYCAVDSYYKYDYWGQGTQVTVSS | high polyreactivity
